In patent US20170157165, “APTAMER FOR FGF2 AND USE THEREOF” (RIBOMIC INC., published 2017):

Tests used:
FGF2 [1] = molecular target: T1, FGF2 (Homo sapiens, UniProt P09038 P09038:135-288); assay: inhibition; SPR inhibition of FGF2-FGFR1alpha(IIIc); each 0.1 uM; conditions: tags: Peprotech
Procedure: BIAcore2000 manufactured by BIAcore was used for the measurement. As directed in BIAcore Company's protocol, Protein A (21181, manufactured by PIERCE) was immobilized on a CM5 sensor chip. About 1,000 RU of human FGFR1α (IIIc), R2α (IIIc), R3 (IIIc), R4 (manufactured by R&D Systems) fused with the Fc portion of IgG (manufactured by R&D systems) was each immobilized thereon. As analyte, a mixture of FGF2 (0.1 μM), heparin (0.1 μM) (manufactured by Pfizer) and aptamer (0.15 μM) was flown. Before an inhibitory test, a mixture of FGF2 and heparin was confirmed to bind to 4 kinds of receptors. […] A sensorgram showing that the aptamer shown by aptamer ID 1 inhibits binding of FGF2 and FGFR1α(IIIc), 2α(IIIc), 3(IIIc), 4 is shown in FIG. 2.
In addition, the inhibitory rate against each of the 4 kinds of receptors was determined. The inhibitory rate was determined with the maximum binding amount of the FGF2 and heparin mixture as 0, and the binding amount with an injection buffer alone as 100. The binding amount here means the RU value of the peak top of sensorgram. The inhibitory rate was calculated. […] The inhibitory rate of other aptamers was not more than 50%.
To enhance FGF2-binding activity, stability, drug deliverability and the like, the nucleic acids shown by aptamer IDs 3(1)-3(40), aptamer IDs 4 and 4(1)-4(4), aptamer ID 5 and aptamer ID 6 were chemically synthesized based on the aptamer shown in SEQ ID NO: 3. Here, the aptamer shown by aptamer ID 4 is the aptamer shown by aptamer ID 3(19) wherein one G(M) at the 5′-terminal and one C(M) at the 3′-terminal have been deleted. The aptamer shown by aptamer ID 5 is the aptamer shown by aptamer ID 3(19) wherein one G(M) has been added at the 5′-terminal and one C(M) has been added at the 3′-terminal. The aptamer shown by aptamer ID 6 is the aptamer shown by aptamer ID 3(19) wherein A(M) alone has been added at the 5′-terminal. These nucleic acids were produced by chemical synthesis.

FGF2 [2] = molecular target: T1, FGF2; assay: cell_activity; HUVEC proliferation, FGF2 0.58 nM; conditions: tags: Peprotech
Procedure: Human umbilical vein endothelial cells (HUVEC) were seeded in a 96 well flat bottom plate at 5×10³ cells per well, and cultured overnight using a medium EGM-2 Bullet Kit for endothelial cells (CC-3162 manufactured by Lonza) containing 2% fetal bovine serum and growth factors. Thereafter, the medium was discarded, the cells were washed twice with PBS buffer, and a mixture of the aptamer shown by aptamer ID 3(21) (5, 2.5, 1, 0.5 nM) and FGF2 (final concentration 0.5 nM), dissolved in a medium exclusively for endothelial cells containing 2% fetal bovine serum, was added. After 72 hr, viable cell number was examined using Cell Counting Kit-8. For the measurement of absorbance, a microplate reader (450 nm) was used. One sample was measured at n=3. As a positive control, anti-FGF2 antibody Anti-FGF, basic (Ab-3) Mouse mAb (3H3) (manufactured by Calbiochem) were used. With the OD value per well obtained by the addition of FGF2 alone and culture of the cells for 3 days as inhibitory activity 0%, and that of the cell obtained by FGF2 free culture for 3 days as inhibitory activity 100%, the inhibitory activity of the aptamer was calculated from the OD value per well obtained by culturing with the addition of a mixture of FGF2 and the aptamer. As a result, it was shown that the aptamer shown by aptamer ID 3(21) has a high inhibitory activity against FGF2.
By a method similar to the above except that the 96 well flat bottom plate was changed to a collagen-coated one, the activity of various aptamers was evaluated. The concentration of FGF2 added was 0.58 nM. As a negative control RNA, Macugen (registered trade mark) sequence without addition of PEG, and with C6 modification of the 5′-terminal and idT modification of the 3′-terminal was used.

T1 sequence (P09038 135-288, one chain of several): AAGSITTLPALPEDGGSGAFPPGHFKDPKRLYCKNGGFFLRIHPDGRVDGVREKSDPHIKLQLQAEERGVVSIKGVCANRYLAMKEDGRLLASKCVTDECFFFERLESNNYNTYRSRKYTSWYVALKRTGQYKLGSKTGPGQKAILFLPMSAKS

Binder	activity (FGF2 [1]) [%]	IC50 (FGF2 [2]) [nM]
GGGAUACUAGGGCAUUAAUGUUACCAGUGUAGUCCC (ssRNA, all C and U 2'-F; 2'-OMe at G1,G2,G3,A4,A9,G10,G11,A14,A17,A18,G20,A23,A26; other purines 2'-OH; 3' idT) [aptamer ID 3(8)]	84	27
GGGAUACUAGGGCAUUAAUGUUACCAGUGUAGUCCC (ssRNA, 2'-F at U8,U16,U21,U28,G29,U30; 2'-OH at G12,G27; all others 2'-OMe) [aptamer ID 3(27)]	99	3.7
GGGAUACUAGGGCAUUAAUGUUACCAGUGUAGUCCC (ssRNA, 2'-F at U8,G12,U16,U21,G27,U28,U30; 2'-OH at G29; all others 2'-OMe; 3' idT) [aptamer ID 3(35)]	84	
GGGAUACUAGGGCAUUAAUGUUACCAGUGUAGUCCC (ssRNA, 2'-F at U8,G12,U16,U21,U28,U30; 2'-OH at G27,G29; all others 2'-OMe) [aptamer ID 3(25)]	90	5.1
GGGAUACUAGGGCAUUAAUGUUACCAGUGUAGUCCC (ssRNA, 2'-OMe at G1,G2,G3,A4,U5,A9,G10,G11,A14,A17,A18,G20,A23,A26; other C and U 2'-F; other purines 2'-OH) [aptamer ID 3(17)]	88	
GGGAUACUAGGGCAUUAAUGUUACCAGUGUAGUCCC (ssRNA, 2'-OMe at G1,G2,G3,A4,C7,A9,G10,G11,A14,A17,A18,G20,A23,A26; other C and U 2'-F; other purines 2'-OH) [aptamer ID 3(16)]	87	7.9
GGGAUACUAGGGCAUUAAUGUUACCAGUGUAGUCCC (ssRNA, 2'-F at U8,U16,U21,U28,U30; 2'-OH at G12,G27,G29; all others 2'-OMe; 5' PEG 10K 4-branched (PTE-100CS)-C6; 3' idT) [aptamer ID 3(39)]	97	
GGGAUACUAGGGCAUUAAUGUUACCAGUGUAGUCCC (ssRNA, 2'-F at U8,U16,U21,U28,U30; 2'-OH at G12,G27,G29; all others 2'-OMe; 5' idT) [aptamer ID 3(20)]	96	
GGGAUACUAGGGCAUUAAUGUUACCAGUGUAGUCCC (ssRNA, 2'-F at U8,U16,U21,G27,U28,U30; 2'-OH at G12,G29; all others 2'-OMe) [aptamer ID 3(26)]	99	3
GGGAUACUAGGGCAUUAAUGUUACCAGUGUAGUCCC (ssRNA, 2'-F at U8,G12,U16,U21,G27,U28,G29,U30; all others 2'-OMe; 3' idT) [aptamer ID 3(34)]	91	
GGGAUACUAGGGCAUUAAUGUUACCAGUGUAGUCCC (ssRNA, all C and U 2'-F; 2'-OMe at G11; other purines 2'-OH) [aptamer ID 3(3)]	87	
GGGAUACUAGGGCAUUAAUGUUACCAGUGUAGUCCC (ssRNA, all C and U 2'-F; 2'-OMe at G32; other purines 2'-OH) [aptamer ID 3(10)]	89	
GGGAUACUAGGGCAUUAAUGUUACCAGUGUAGUCCC (ssRNA, 2'-OMe at G1,G2,G3,A4,A9,G10,G11,A14,A17,A18,G20,A23,C24,C25,A26; other C and U 2'-F; other purines 2'-OH) [aptamer ID 3(15)]	86	14
GGGAUACUAGGGCAUUAAUGUUACCAGUGUAGUCCC (ssRNA, 2'-F at U8,U16,U21,U28,U30; G12 DNA (2'-H); 2'-OH at G27,G29; all others 2'-OMe) [aptamer ID 3(23)]	91	5.3
GGGAUACUAGGGCAUUAAUGUUACCAGUGUAGUCCC (ssRNA, all C and U 2'-F; 2'-OMe at A9; other purines 2'-OH) [aptamer ID 3(5)]	87	
GGGAUACUAGGGCAUUAAUGUUACCAGUGUAGUCCC (ssRNA, 2'-F at U8,U16,U21,U28,U30; 2'-OH at G12,G27,G29; all others 2'-OMe; PS between G29 and U30) [aptamer ID 3(33)]	90	4
GGGAUACUAGGGCAUUAAUGUUACCAGUGUAGUCCC (ssRNA, 2'-F at U8,U16,U21,U28,U30; 2'-OH at G12,G27,G29; all others 2'-OMe; 5' PEG 40K (GL2-400TS)-ssH; 3' idT) [aptamer ID 3(40)]	97	
GGGAUACUAGGGCAUUAAUGUUACCAGUGUAGUCCC (ssRNA, 2'-F at U8,U16,U21,U28,U30; 2'-OH at G12,G27,G29; all others 2'-OMe; 5' PEG 80K (GL4-800TS)-C6; 3' idT) [aptamer ID 3(36)]	98	
GGGAUACUAGGGCAUUAAUGUUACCAGUGUAGUCCC (ssRNA, 2'-OMe at G1,G2,G3,A4,A9,G10,G11,A14,A17,A18,G20,U22,A23,A26; other C and U 2'-F; other purines 2'-OH) [aptamer ID 3(14)]	87	12
GGGAUACUAGGGCAUUAAUGUUACCAGUGUAGUCCC (ssRNA, 2'-F at U8,U16,U21,U28,U30; 2'-OH at G12,G27,G29; all others 2'-OMe) [aptamer ID 3(18)]	89	2.6
